Residue numbers refer to the chain shown, from its start.

B1: 374_D08 (antibody, V domains shown)
VH: EVQLLESGGGLVQPGGSLRLSCAASGFTFDSYGMNWVRQAPGKGLEWVSGINYNSGYTGYADSVKGRFTISRDNSKNTLYLQMNSLRAEDTAVYYCARSANWHDTHLDYWGQGTLVTVSS
VL: DIQMTQSPSSLSASVGDRVTITCRASQSILTYLNWYQQKPGKAPKLLIYAATSRHSGVPSRFSGSGSGTDFTLTISSLQPEDFATYYCQQSYESPLTFGGGTKVEIK
B2: 373_H05 (antibody, V domains shown)
VH: B1 VH with D30S, S31D, G33S, S49A, G50N, S55G, T58K, H106A
VL: B1 VL with L33V, L47V, H55A, S94T
B3: 373_D04 (antibody, V domains shown)
VH: B1 VH with G33S, T58K, H106A
VL: B1 VL with T31S, E93D
B4: 374_B06 (antibody, V domains shown)
VH: B1 VH with G33S, S49A, T58K
VL: B1 VL with L33V, H55A, E93D, S94T
B5: 373_E07 (antibody, V domains shown)
VH: B1 VH with D30S, S49A, G50N, S55G, G59S, H106A
VL: B1 VL with L33V, R54L, H55A, S94T
B6: 373_D01 (antibody, V domains shown)
VH: B1 VH with G33S, T58K, G59S
VL: B1 VL with T31S, L33V, L47V, H55A, E93D
B7: 374_C06 (antibody, V domains shown)
VH: B1 VH with S31D, G33S, G50S, T58K, H106A
VL: B1 VL with L33V, H55A, E93N
B8: 373_E05 (antibody, V domains shown)
VH: B1 VH with G50N, S55G, G59S, H106A
VL: B1 VL with T31S, L33V, A51V, H55A, E93D, S94L
B9: 373_G12 (antibody, V domains shown)
VH: B1 VH with D30S, G33S, G50N, S55G, G59S, H106A
VL: B1 VL with T31S, A51T, R54L, H55A, E93N
B10: 373_G10 (antibody, V domains shown)
VH: B1 VH with D30S, S31D, G50N, S55G, T58K, G59S, H106A
VL: B1 VL with L30V, T31S, L33V, H55A, E93D, S94L
B11: 374_B12 (antibody, V domains shown)
VH: B1 VH with G33S, S49A, S55G
VL: B1 VL with L30S, T31S, L47V, H55A, E93D, S94N
B12: 373_D05 (antibody, V domains shown)
VH: B1 VH with D30S, G33S, T58K, H106A
VL: B1 VL with T31S, L47V, H55A, E93D
B13: 374_B04 (antibody, V domains shown)
VH: B1 VH with D30S, G33S, G50N, H106A
VL: B1 VL with L30V, T31S, A51V, H55A
B14: 374_C03 (antibody, V domains shown)
VH: B1 VH with G33S, G59S, H106A
VL: B1 VL with H55A, E93D
B15: 373_H01 (antibody, V domains shown)
VH: B1 VH with G33S, S49A, G50N, S55G, H106A
VL: B1 VL with T31S, L47V, H55A, E93D, S94N
B16: 373_D10 (antibody, V domains shown)
VH: B1 VH with G33S, G50N, T58K, H106A
VL: B1 VL with T31S, L33V, H55A, E93D, S94L
B17: 373_E01 (antibody, V domains shown)
VH: B1 VH with D30S, S55G, T58K, H106A
VL: B1 VL with L30V, T31S, L33V, E93N, S94N
B18: 374_A07 (antibody, V domains shown)
VH: B1 VH with D30S, G33S, T58K, H106A
VL: B1 VL with T31S, L33V, A51V, H55A, E93D, S94L
B19: 373_E12 (antibody, V domains shown)
VH: B1 VH with D30S, G33S, S49A, G50N, S55G, H106A
VL: B1 VL with T31S, L33V, L47V, H55A, E93D, S94T
B20: 376_F06 (antibody, V domains shown)
VH: B1 VH with D30S, S55G, S99G
VL: B1 VL with L33V, L47V, H55A, S94T
B21: 376_G05 (antibody, V domains shown)
VH: B1 VH with D30S, G33S, S49A, S55G, G59S, S99G, H106A
VL: B1 VL with L30I, T31S, L33V, L47V, H55A
B22: 365_C02 (antibody, V domains shown)
VH: B1 VH with G33S, G50N, S55G, T58K, S99G, N101T
VL: B1 VL with L30S, L47V, S94N
B23: 365_F05 (antibody, V domains shown)
VH: B1 VH with D30S, S49A, G50S, S55G, G59S, S99G, N101T
VL: B1 VL with L30V, L33V, H55A, S94T
B24: 365_D10 (antibody, V domains shown)
VH: B1 VH with D30S, G33S, S49A, S55G, S99G, N101T
VL: B1 VL with L30S, H55A
B25: 376_G06 (antibody, V domains shown)
VH: B1 VH with D30S, S49A, S55G, S99G
VL: B1 VL with L30V, T31S, L33V, L47V, H55A, E93N
B26: 365_D02 (antibody, V domains shown)
VH: B1 VH with D30S, G33S, N35H, S49A, G50S, S55G, G59S, S99G, N101T
VL: B1 VL with L30V, R54L, H55A, E93D, S94N
B27: 376_H11 (antibody, V domains shown)
VH: B1 VH with G33S, G50N, S55G, S99G, H106A
VL: B1 VL with L30S, T31R, A51V, R54L, H55A
B28: 365_A08 (antibody, V domains shown)
VH: B1 VH with D30S, G33S, S49A, G50S, S55G, T58K, G59S, S99G, N101T
VL: B1 VL with L30I, L47V, H55A, Y92D, E93N, S94T
B29: 365_C04 (antibody, V domains shown)
VH: B1 VH with G33S, S49A, G50N, S55G, T58K, S99G, N101T
VL: B1 VL with L47V, R54L, H55A, E93D, S94T
B30: 376_G10 (antibody, V domains shown)
VH: B1 VH with S49A, S55G, G59S, S99G, H106A
VL: B1 VL with T31S, L33V, H55A
B31: 376_H04 (antibody, V domains shown)
VH: B1 VH with D30S, G33S, S49A, S55G, T58K, S99G, H106A
VL: B1 VL with L33V, L47V, H55A, E93D, S94L
B32: 366_D08 (antibody, V domains shown)
VH: B1 VH with D30S, N35H, G50N, S55G, T58K, G59S, S99G, N101T
VL: B1 VL with T31S, L33V, L47V, R54L, H55A, S94N

The first experiment deals with Human Fc (human). The experiment in a line: ELISA, negative control.
For the molecule B1, the optical density was found to be 0.201 OD.
The molecule B2 gave an optical density of 0.201 OD.
The molecule B3 yielded an optical density of 0.168 OD.
On to B4, for which the optical density came to 0.157 OD.
The molecule B5 returned an optical density of 0.294 OD.
Molecule B6 returned an optical density of 0.174 OD.
As to B7, the optical density stood at 0.18 OD.
In the case of B8, the optical density was found to be 0.176 OD.
As for B9, the optical density stood at 0.174 OD.
The molecule B10 showed an optical density of 0.2 OD.
Regarding B11, the optical density was determined as 0.257 OD.
Take B12: the optical density turned out to be 0.179 OD.
With B13, the optical density came out at 0.222 OD.
As for B14, the optical density stood at 0.208 OD.
In the case of B15, the optical density is 0.198 OD.
As to B16, the optical density stood at 0.189 OD.
The molecule B17 came in with an optical density of 0.16 OD.
Same read-out and setting: the value for B18 was 0.206 OD; that for B19 was 0.17 OD.

The target in a further experiment is Human Fc (human). Nature of the experiment: ELISA; negative control. A general note: ELISA stands for enzyme-linked immunosorbent assay.
Regarding B20, the optical density amounted to 0.284 OD.
In turn, B21 registered an optical density of 0.252 OD.
In turn, B22 showed an optical density of 0.362 OD.
B23: the optical density was 0.376 OD.
Regarding B24, the optical density turned out to be 0.641 OD.
For the molecule B25, the optical density worked out at 0.267 OD.
Still for that read-out and setting: the value for B26 was 0.486 OD.
The same measure, in the same setting: the value for B27 was 0.325 OD.
B28 registered an optical density of 0.256 OD.
Still for that read-out and setting: under B29 stands 0.305 OD; under B30, 0.321 OD; under B31, 0.34 OD.
B32 showed an optical density of 0.312 OD.

The values are drawn from patent US20210380703A1.
